{"source": "paper PMC3030945", "about": "(The Journal of Membrane Biology, 2010)", "key": {"[1]": {"format": "physicochemical", "details": "all lipid mixtures; van't Hoff analysis of CD partitioning data"}, "[2]": {"assay": "Isothermal titration calorimetry: enthalpy of melittin partitioning into LUVs", "format": "physicochemical", "details": "for −TΔS: from ΔG = ΔH − TΔS, ± joint confidence limits"}, "[3]": {"assay": "CD titration of melittin with SUVs: free energy of partitioning", "format": "physicochemical", "details": "5 mM lipid, estimated from measured partitioning free energy ΔG"}, "[4]": {"assay": "Isothermal titration calorimetry: enthalpy of melittin partitioning into SUVs", "format": "physicochemical", "details": "POPC SUVs, 25°C; ITC, 10 μl of 100 μM melittin into 5 mM lipid"}, "[5]": {"assay": "CD spectroscopy: helical content of membrane-bound melittin", "format": "physicochemical", "details": "for peptide helical fraction f α: 25°C, CD molar ellipticity at 222 nm"}, "[6]": {"assay": "Hydrophobic-effect free energy ΔG hϕ calculated from measured heat capacity", "format": "physicochemical", "details": "for hydrophobic free energy ΔG hϕ: calculated from measured heat capacity"}, "[7]": {"details": "cited from earlier work"}, "[8]": {"details": "various methods, mole-fraction partition coefficients, ref Beschiaschvili and Baeuerle 1991, Kuchinka and Seelig 1989, Ladokhin et al. 2000, Ladokhin and White 1999, Schwarz and Beschiaschvili 1989, Vogel 1981; cited from earlier work"}}}
{"substance": "melittin", "values": [{"measurement": "heat capacity change", "setting": "[1]", "value": "approximately −0.5 kcal mol^−1 K^−1"}, {"measurement": "change of heat capacity", "setting": "[2]; LUVs at different lipid content, slope of enthalpy vs temperature (Fig. 4b)", "value": "about −0.5 kcal/molK"}, {"measurement": "−TΔS", "setting": "[2]; POPC 50%:POPG 50% LUVs, 25°C", "value": "−2.8 (±1) kcal mol^−1"}, {"measurement": "−TΔS", "setting": "[2]; POPC 50%:POPG 50% LUVs, 40°C", "value": "3.08 (±1) kcal mol^−1"}, {"measurement": "−TΔS", "setting": "[2]; POPC 50%:POPG 50% LUVs, 50°C", "value": "8.73 (±1.1) kcal mol^−1"}, {"measurement": "−TΔS", "setting": "[2]; POPC 50%:POPG 50% LUVs, 60°C", "value": "16.99 (±1.5) kcal mol^−1"}, {"measurement": "−TΔS", "setting": "[2]; POPC 75%:POPG 25% LUVs, 25°C", "value": "−4.42 (±0.6) kcal mol^−1"}, {"measurement": "−TΔS", "setting": "[2]; POPC 75%:POPG 25% LUVs, 40°C", "value": "3.24 (±0.8) kcal mol^−1"}, {"measurement": "−TΔS", "setting": "[2]; POPC 75%:POPG 25% LUVs, 50°C", "value": "8.32 (±0.4) kcal mol^−1"}, {"measurement": "−TΔS", "setting": "[2]; POPC 75%:POPG 25% LUVs, 60°C", "value": "15.06 (±1.1) kcal mol^−1"}, {"measurement": "−TΔS", "setting": "[2]; POPC 90%:POPG 10% LUVs, 25°C", "value": "−5.9 (±1.5) kcal mol^−1"}, {"measurement": "−TΔS", "setting": "[2]; POPC 90%:POPG 10% LUVs, 40°C", "value": "−2.25 (±0.9) kcal mol^−1"}, {"measurement": "−TΔS", "setting": "[2]; POPC 90%:POPG 10% LUVs, 50°C", "value": "3.3 (±1) kcal mol^−1"}, {"measurement": "−TΔS", "setting": "[2]; POPC 90%:POPG 10% LUVs, 60°C", "value": "5.73 (±1.1) kcal mol^−1"}, {"measurement": "−TΔS", "setting": "[2]; POPC 100%:POPG 0% LUVs, 40°C", "value": "−12.3 (±1.6) kcal mol^−1"}, {"measurement": "−TΔS", "setting": "[2]; POPC 100%:POPG 0% LUVs, 50°C", "value": "−6.2 (±1.4) kcal mol^−1"}, {"measurement": "−TΔS", "setting": "[2]; POPC 100%:POPG 0% LUVs, 60°C", "value": "−3.2 (±1.3) kcal mol^−1"}, {"measurement": "heat capacity associated with partitioning", "setting": "[2]; all lipid mixtures (POPC:POPG 0–50% POPG), independent of lipid composition", "value": "about −0.5 kcal mol^−1 K^−1"}, {"measurement": "fraction of melittin bound", "setting": "[3]", "value": 95, "unit": "%"}, {"measurement": "enthalpy change, before corrections", "setting": "[4]", "value": "≈ −10 kcal mol^−1"}, {"measurement": "fraction of peptide bound", "setting": "[5]; POPC50:POPG50, 5°C, CD", "value": "≈ 0.57"}, {"measurement": "peptide helical fraction f α", "setting": "[5]; POPC50:POPG50 LUVs", "value": 0.71}, {"measurement": "peptide helical fraction f α", "setting": "[5]; POPC75:POPG25 LUVs", "value": 0.73}, {"measurement": "peptide helical fraction f α", "setting": "[5]; POPC90:POPG10 LUVs", "value": 0.71}, {"measurement": "peptide helical fraction f α", "setting": "[5]; POPC LUVs, Luo and Baldwin formula", "value": 0.71}, {"measurement": "α-helical content", "setting": "[5]; melittin bound to a lipid membrane at 25°C, CD", "value": "~ 70%"}, {"measurement": "helical fraction of peptide (or the fraction of peptide bound)", "setting": "[5]; pure POPC, 5°C, CD", "value": "≈ 0.57"}, {"measurement": "fraction of peptide bound", "setting": "[5]; pure POPC, 60°C, CD", "value": "≈ 0.63"}, {"measurement": "T h (temperature at which ΔH hϕ has a bulk-phase transfer value of 0)", "setting": "[6]; POPC", "value": 326, "unit": "K"}, {"measurement": "T s (temperature at which ΔS hϕ has a bulk-phase transfer value of 0)", "setting": "[6]; POPC", "value": 336, "unit": "K"}, {"measurement": "T h", "setting": "[6]; POPC50:POPG50", "value": 292, "unit": "K"}, {"measurement": "T s", "setting": "[6]; POPC50:POPG50", "value": 305, "unit": "K"}, {"measurement": "hydrophobic free energy ΔG hϕ", "setting": "[6]; POPC50:POPG50, 25°C", "value": "−7.50 (±0.52) kcal mol^−1"}, {"measurement": "T h", "setting": "[6]; POPC75:POPG25", "value": 294, "unit": "K"}, {"measurement": "T s", "setting": "[6]; POPC75:POPG25", "value": 306, "unit": "K"}, {"measurement": "hydrophobic free energy ΔG hϕ", "setting": "[6]; POPC75:POPG25, 25°C", "value": "−6.87 (±0.30) kcal mol^−1"}, {"measurement": "T h", "setting": "[6]; POPC90:POPG10", "value": 296, "unit": "K"}, {"measurement": "T s", "setting": "[6]; POPC90:POPG10", "value": 316, "unit": "K"}, {"measurement": "hydrophobic free energy ΔG hϕ", "setting": "[6]; POPC90:POPG10, 25°C", "value": "−6.68 (±0.22) kcal mol^−1"}, {"measurement": "contribution of the hydrophobic effect to the total free energy", "setting": "[6]; POPC, 25°C", "value": "approximately 79%"}, {"measurement": "hydrophobic free energy ΔG hϕ", "setting": "[6]; POPC, 25°C", "value": "−4.88 (±2.83) kcal mol^−1"}, {"measurement": "electrical valence (formal valence)", "setting": "[7]; formal peptide charge as stated, no reference given", "value": "5–6"}, {"measurement": "effective charge", "setting": "[7]; literature value, ref Beschiaschvili and Baeuerle 1991", "value": "≈ 2"}, {"measurement": "free energy of partitioning of unfolded melittin into the bilayer interface of POPC vesicles", "setting": "[8]", "value": "−6 to −7", "unit": "kcal mol^−1"}]}
